Consider two molecules from publication PMC8879280, “A Low-Activity Polymorphic Variant of Human NEIL2 DNA Glycosylase”.

For data set [1], the target named is T1, hNEIL2 P304T P304T (Homo sapiens) (UniProt Q969S2).
T1 sequence: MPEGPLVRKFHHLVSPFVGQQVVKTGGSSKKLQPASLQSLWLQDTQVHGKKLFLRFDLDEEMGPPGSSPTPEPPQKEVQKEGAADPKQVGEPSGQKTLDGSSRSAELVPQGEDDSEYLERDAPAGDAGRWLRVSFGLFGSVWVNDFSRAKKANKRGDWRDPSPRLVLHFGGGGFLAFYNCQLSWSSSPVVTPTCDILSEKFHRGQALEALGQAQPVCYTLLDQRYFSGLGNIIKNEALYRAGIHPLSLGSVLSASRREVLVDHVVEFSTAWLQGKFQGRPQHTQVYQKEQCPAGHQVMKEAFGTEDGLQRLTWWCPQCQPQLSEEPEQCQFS
Description: EMSA. Particulars: THF (AP site analog) at position 21 of strand 1 (N); 25 mM potassium phosphate pH 7.5, 5 mM MgCl2, 1 mM DTT, 0.5 mg/mL BSA, 10% glycerol; 35 nM bubble or 100 nM duplex ligand; 5 min on ice, 8% native PAGE at 4 C.

A further data set concerns the target T2, hNEIL2 WT (Homo sapiens) (UniProt Q969S2).
T2 sequence: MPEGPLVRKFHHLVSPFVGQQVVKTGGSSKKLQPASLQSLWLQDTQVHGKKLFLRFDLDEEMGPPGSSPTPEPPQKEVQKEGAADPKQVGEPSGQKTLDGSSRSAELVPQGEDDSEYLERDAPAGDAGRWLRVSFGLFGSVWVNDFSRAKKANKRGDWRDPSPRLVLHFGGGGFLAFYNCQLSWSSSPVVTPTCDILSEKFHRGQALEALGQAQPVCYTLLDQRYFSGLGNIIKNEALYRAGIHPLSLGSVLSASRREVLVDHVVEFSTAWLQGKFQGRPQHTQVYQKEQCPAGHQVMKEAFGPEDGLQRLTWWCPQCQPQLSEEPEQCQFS
Briefly: EMSA. The conditions noted are these: THF (AP site analog) at position 21 of strand 1 (N); 25 mM potassium phosphate pH 7.5, 5 mM MgCl2, 1 mM DTT, 0.5 mg/mL BSA, 10% glycerol; 35 nM bubble or 100 nM duplex ligand; 5 min on ice, 8% native PAGE at 4 C.

The target in data set [2] is T3, hNEIL2 R103W R103W (Homo sapiens) (UniProt Q969S2).
T3 sequence: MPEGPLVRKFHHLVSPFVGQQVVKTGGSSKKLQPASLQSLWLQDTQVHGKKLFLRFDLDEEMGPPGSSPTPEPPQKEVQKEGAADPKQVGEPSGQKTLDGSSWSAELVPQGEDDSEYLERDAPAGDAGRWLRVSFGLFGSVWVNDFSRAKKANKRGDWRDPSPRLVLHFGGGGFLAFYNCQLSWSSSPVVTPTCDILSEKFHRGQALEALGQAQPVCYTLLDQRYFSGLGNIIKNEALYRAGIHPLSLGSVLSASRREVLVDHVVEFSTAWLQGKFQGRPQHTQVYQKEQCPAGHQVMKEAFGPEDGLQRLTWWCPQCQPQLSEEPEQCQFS
Briefly: EMSA. Particulars: THF (AP site analog) at position 21 of strand 1 (N); 25 mM potassium phosphate pH 7.5, 5 mM MgCl2, 1 mM DTT, 0.5 mg/mL BSA, 10% glycerol; 35 nM bubble or 100 nM duplex ligand; 5 min on ice, 8% native PAGE at 4 C.

Another data set deals with T4, hNEIL2 WT (Homo sapiens, UniProt Q969S2 1-332).
T4 sequence: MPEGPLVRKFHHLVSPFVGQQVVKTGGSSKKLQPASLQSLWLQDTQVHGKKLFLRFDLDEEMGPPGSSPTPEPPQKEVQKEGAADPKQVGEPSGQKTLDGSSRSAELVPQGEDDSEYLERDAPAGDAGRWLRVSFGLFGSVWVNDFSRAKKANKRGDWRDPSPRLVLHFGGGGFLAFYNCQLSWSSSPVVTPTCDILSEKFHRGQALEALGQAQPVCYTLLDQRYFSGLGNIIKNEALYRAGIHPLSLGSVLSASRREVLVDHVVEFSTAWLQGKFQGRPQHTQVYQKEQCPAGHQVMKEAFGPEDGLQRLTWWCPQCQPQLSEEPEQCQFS
Briefly: EMSA; 5 mM Mg2+; apparent, sigmoidal fit; 25 mM potassium phosphate pH 7.5, 5 mM MgCl2, 1 mM DTT, 0.5 mg/mL BSA, 10% glycerol; 35 nM bubble or 100 nM duplex ligand; 5 min on ice, 8% native PAGE at 4 C. The conditions noted are these: protein: recombinant; tags: C-terminal GHHHHHH; label: 32P; 10-nt central bubble between two 15-bp arms, blunt.

The target of a further data set is T5, hNEIL2 R103W (Homo sapiens, UniProt Q969S2 1-332, R103W).
T5 sequence: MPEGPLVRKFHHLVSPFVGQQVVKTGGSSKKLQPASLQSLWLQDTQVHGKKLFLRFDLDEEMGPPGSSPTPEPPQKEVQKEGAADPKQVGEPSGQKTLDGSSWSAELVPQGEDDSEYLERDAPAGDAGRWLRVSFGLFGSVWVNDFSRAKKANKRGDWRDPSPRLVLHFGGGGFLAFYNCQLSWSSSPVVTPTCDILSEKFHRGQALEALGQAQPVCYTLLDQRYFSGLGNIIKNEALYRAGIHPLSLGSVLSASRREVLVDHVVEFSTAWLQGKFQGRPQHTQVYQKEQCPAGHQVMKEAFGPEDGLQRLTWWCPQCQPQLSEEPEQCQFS
Described as above. The conditions noted are these: protein: recombinant; tags: C-terminal GHHHHHH; label: 32P; 10-nt central bubble between two 15-bp arms, blunt.

A further data set addresses T6, hNEIL2 P304T (Homo sapiens, UniProt Q969S2 1-332, P304T).
T6 sequence: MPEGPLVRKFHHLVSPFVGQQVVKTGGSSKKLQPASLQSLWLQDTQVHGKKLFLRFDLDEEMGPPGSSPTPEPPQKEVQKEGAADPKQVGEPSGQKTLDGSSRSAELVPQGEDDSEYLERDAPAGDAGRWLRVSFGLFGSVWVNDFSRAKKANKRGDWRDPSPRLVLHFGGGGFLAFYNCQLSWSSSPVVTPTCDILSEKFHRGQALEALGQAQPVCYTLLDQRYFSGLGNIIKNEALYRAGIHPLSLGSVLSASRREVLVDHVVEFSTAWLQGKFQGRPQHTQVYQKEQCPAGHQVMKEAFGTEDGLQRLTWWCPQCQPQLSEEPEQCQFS
The description is as above. The conditions noted are these: protein: recombinant; tags: C-terminal GHHHHHH; label: 32P; 10-nt central bubble between two 15-bp arms, blunt.

For “CCTGCATGGGCGGCAGAACTNGAGGCCATCCTCACCATCC / GGATGGTGAGGATGGGAGGTTCCCTTGCCGCCCATGCAGG [40F//40bubble (THF bubble)]”, the K half in data set [1] was 6.4 µM; with hNEIL2 WT (Homo sapiens), 1000 nM; in data set [2], 10.4 µM.

B1: 40C//40bubble (undamaged bubble) (dsDNA)
DNA 1: CCTGCATGGGCGGCAGAACTCGAGGCCATCCTCACCATCC
DNA 2: GGATGGTGAGGATGGGAGGTTCCCTTGCCGCCCATGCAGG
With B1, the “apparent K (half saturation)” value with hNEIL2 WT was 1000 ± 100 nM; in the data set with hNEIL2 R103W, 11.7 ± 0.7 µM; in the data set with hNEIL2 P304T it was 7 ± 0.3 µM.
